Measured values published in patent US20220332804A1 (CSL INNOVATION, published 2022).

How the values were obtained:
Assay in all cases: SPR, antibody captured, C2 as analyte;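 also: biacore at 37 °C, anti-C2 mAbs held by immobilised goat anti-human IgG, C2 alanine or serine mutants injected, double-referenced sensorgrams fitted to a 1:1 kinetic or steady-state model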
human C2 Y328A = target: T1, human C2 Y328A (human, UniProt P06681 21-752)
T1 sequence: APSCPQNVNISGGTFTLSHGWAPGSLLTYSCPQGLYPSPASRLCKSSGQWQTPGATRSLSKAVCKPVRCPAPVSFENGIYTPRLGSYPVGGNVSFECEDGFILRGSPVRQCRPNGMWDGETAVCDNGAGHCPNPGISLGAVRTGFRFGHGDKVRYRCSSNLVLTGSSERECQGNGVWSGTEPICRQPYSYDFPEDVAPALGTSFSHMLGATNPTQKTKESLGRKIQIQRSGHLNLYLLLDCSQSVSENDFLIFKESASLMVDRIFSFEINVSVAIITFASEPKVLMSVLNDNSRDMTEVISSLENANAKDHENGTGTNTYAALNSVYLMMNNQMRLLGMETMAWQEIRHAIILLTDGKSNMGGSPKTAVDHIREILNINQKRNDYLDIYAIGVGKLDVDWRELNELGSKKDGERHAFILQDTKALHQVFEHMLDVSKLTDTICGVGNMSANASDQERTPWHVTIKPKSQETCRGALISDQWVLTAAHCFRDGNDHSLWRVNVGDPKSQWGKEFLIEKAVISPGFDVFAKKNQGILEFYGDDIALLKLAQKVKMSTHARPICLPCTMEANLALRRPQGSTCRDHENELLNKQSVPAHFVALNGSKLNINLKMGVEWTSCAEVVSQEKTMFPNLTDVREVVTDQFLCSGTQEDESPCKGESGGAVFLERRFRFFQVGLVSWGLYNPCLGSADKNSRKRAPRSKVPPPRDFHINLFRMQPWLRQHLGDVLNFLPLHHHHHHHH

human C2 G414A = target: T2, human C2 G414A (human, UniProt P06681 21-752)
T2 sequence: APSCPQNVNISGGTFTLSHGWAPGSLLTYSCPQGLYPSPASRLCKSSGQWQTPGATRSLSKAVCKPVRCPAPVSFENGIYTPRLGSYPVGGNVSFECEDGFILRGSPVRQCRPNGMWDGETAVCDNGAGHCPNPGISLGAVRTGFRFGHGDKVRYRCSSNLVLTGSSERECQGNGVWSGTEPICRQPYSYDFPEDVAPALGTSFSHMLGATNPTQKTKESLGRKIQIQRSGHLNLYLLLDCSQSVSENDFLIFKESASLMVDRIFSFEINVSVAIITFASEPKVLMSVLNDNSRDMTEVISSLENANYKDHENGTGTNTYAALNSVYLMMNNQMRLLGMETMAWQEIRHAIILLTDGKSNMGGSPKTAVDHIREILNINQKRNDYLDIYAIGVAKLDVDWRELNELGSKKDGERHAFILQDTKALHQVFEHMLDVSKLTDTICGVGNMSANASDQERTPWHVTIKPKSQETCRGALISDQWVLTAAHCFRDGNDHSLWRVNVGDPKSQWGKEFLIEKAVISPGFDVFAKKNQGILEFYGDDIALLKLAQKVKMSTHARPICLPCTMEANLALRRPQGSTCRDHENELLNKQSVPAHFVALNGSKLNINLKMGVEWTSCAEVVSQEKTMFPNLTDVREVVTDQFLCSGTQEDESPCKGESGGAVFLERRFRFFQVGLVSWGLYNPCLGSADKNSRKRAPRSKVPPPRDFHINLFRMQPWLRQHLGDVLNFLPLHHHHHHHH

human C2 E450A = target: T3, human C2 E450A (human, UniProt P06681 21-752)
T3 sequence: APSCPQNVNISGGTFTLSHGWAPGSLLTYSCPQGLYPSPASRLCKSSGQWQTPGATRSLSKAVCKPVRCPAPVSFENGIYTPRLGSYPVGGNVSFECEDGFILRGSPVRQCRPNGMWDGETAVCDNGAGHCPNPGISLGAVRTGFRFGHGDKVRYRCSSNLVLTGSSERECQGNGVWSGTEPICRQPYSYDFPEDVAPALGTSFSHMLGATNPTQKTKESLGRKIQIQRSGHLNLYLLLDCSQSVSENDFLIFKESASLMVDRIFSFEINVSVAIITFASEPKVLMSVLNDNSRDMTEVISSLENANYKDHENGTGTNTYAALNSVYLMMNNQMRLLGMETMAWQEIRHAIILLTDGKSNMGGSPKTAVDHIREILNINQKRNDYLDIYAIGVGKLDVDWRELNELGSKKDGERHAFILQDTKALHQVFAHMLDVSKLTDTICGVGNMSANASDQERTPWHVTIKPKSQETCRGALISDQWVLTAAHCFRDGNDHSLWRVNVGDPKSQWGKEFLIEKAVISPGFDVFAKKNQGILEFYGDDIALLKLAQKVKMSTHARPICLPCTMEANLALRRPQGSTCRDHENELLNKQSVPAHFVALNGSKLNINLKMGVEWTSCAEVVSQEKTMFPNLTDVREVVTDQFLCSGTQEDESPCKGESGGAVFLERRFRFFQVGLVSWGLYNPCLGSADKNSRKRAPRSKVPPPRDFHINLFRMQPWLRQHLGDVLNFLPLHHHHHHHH

human C2 K457A = target: T4, human C2 K457A (human, UniProt P06681 21-752)
T4 sequence: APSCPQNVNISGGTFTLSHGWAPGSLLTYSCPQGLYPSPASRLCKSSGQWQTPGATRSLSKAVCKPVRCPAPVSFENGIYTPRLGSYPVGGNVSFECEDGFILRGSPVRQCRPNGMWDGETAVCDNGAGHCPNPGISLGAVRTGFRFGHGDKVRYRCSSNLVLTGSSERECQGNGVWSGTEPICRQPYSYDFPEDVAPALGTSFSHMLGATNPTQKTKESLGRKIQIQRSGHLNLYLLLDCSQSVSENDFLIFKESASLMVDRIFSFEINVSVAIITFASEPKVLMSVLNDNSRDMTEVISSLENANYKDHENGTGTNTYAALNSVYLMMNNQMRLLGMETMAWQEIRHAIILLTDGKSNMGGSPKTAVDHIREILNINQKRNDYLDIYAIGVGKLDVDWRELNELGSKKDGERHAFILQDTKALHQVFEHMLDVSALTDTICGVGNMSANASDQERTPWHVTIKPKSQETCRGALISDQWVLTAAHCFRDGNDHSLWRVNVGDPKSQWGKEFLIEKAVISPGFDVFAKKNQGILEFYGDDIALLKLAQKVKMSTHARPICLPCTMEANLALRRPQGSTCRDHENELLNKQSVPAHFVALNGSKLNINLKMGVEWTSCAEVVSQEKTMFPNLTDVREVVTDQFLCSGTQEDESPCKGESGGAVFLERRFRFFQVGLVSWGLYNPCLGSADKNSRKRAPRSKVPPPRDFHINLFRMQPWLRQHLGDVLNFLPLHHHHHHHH

B1: RF16-242 (antibody, human IgG4 S228P, lambda, V domains shown)
VH: EVQLLQSGAEVKKPGESLKISCKGSGYSFTSYWIGWVRQMPGKGLEWMGIIYPGDSDTRYSPSFQGQVTISADKSISTAYLQWSSLKASDTAMYYCARRGHYGDYFDYWGQGTLVTVSS
VL: SYELTQPPSVSVSPGQTARITCSGDALPKKYAYWYHQKSGQAPVLVIYEDRRRPSEIPERFSGSSSGTMATLTITGAQVEDEGVYFCYSRDRAGNQRVFGGGTQLTVLG
notes: pH-dependent anti-C2 antibody from a phage display library
Kd (human C2 Y328A): 45.4 nM | Kd (human C2 G414A): 4.2 nM | Kd (human C2 E450A): 20.3 nM | Kd (human C2 K457A): 233 nM
